Measurements from patent US20190040156A1.

Legend:
[1] = molecular target: human FcγRI (CD64) (human) (UniProt P12314); assay: SPR, Biacore T200, antibody captured on protein A, FcγR as analyte, 37 °C, N=3
[2] = molecular target: human FcγRIIb (CD32b) (human) (UniProt P31994); assay: as above
[3] = molecular target: human TNFα (human) (UniProt P01375); assay: CG-MALS of antibody:TNFα complexes, molar ratios about 0.5 to 5.0, antibody 10 µg/mL, PBS pH 7.2
human TNFα (human), sequence (P01375 77-233 limits assumed): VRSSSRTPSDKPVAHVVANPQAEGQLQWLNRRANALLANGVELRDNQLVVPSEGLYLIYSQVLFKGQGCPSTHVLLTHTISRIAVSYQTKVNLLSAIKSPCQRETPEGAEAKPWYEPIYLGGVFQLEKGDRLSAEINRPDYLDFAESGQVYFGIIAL

human FcγRIIb (CD32b) (human), sequence (P31994 43-217 limits assumed): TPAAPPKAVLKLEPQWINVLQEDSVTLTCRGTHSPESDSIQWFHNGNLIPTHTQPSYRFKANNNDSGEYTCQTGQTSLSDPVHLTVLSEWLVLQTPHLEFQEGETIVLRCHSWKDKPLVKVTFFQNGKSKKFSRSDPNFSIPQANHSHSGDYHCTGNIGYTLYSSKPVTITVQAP
human FcγRI (CD64) (human), sequence (P12314 16-288 limits assumed): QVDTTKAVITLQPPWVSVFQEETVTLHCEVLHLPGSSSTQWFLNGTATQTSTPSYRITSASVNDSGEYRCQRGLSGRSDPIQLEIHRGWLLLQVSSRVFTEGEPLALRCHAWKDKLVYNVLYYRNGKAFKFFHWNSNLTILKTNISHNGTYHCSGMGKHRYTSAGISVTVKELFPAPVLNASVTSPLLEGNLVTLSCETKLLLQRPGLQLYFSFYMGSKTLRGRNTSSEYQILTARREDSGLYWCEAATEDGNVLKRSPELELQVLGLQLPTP

Kd [1]: 0.0563 nM
Kd [2]: 5730 nM
maximum immune complex weight average molecular weight [3]: > 1300 kDa
Substance: parental anti-TNFα antibody (adalimumab, as described in U.S. Pat. No. 6,090,382)
